# Measured values: patent publication US20170253656A1 (SUTRO BIOPHARMA, published 2017)
# T1: hu-CD74 antigen (R&D SYSTEMS catalog #3590-CD-050) (human, UniProt P04233-2 73-232, limits assumed)
# T1 construct: Bought antigen; also called rhCD74; human CD74
# T1 sequence (looked up): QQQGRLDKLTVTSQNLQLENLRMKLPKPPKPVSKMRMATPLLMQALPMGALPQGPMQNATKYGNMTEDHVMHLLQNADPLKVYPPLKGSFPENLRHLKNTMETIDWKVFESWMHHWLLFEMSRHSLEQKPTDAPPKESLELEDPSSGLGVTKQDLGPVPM
# Molecular target: T1, hu-CD74 antigen (R&D SYSTEMS catalog …)
# Assay: SPR (Biacore T200), captured on anti-human Fc, rhCD74 analyte
# Experimental: (§1) Kinetic binding experiments were performed at 25° C. using 1×HBS-EP+buffer. Kinetic data was collected by injecting test and control antibodies at concentrations of 10, 5 and 2.5 μg/mL for 12 s at a flow rate of 10 μl/min on flow cells 2, 3 and 4 respectively, followed by a buffer wash for 30 s at the same flow rate. Kinetic characterization of antibody samples was carried out with 8 concentrations of a 1:2 dilution series of rhCD74 antigen (R&D Systems) and 2 injections of 0 nM antigen (buffer only). […] Between each ligand capture and analyte binding cycle, regeneration was carried out using 2 injections of 3M MgCl₂ for 30 seconds at 30 μL/min, followed by a 30 second buffer wash step.
Kd,koff,kon,Binder
0.528 nM,0.000297 s⁻¹,563000 M⁻¹ s⁻¹,"1275-G02 light chain paired with HC 1251-F07 (SEQ ID NO: 311) (antibody, human IgG1, V domains shown) VH: QVQLVESGGGVVQPGRSLRLSCAASGFTFSSHGMHWVRQAPDKGLEWVAVIWDDGSNEVYADSVKGRFTISRDNSKNTLYLQMNSLRAEDTAVYYCARGGTRIRGLRYGTDVWGQGTTVTVSS VL: DIQMTQSPSSLSASVGDRVTITCRASQGLGSFLAWYQQKPEKAPKSLIYLGNLLQIGVPSRFSGSGSGTDFTLTISSLQPEDFATYYCQQYNAYPLTFGGGTKVEIK"
0.114 nM,9.99e-05 s⁻¹,873000 M⁻¹ s⁻¹,"1251-A06 heavy chain paired with VL SEQ ID NO: 272 (antibody, V domains shown) VH: QVQLVESGGGVVQPGRSLRLSCAASGFDFSSYGMHWVRQAPDKGLEWVAVIWDDGSDRYYADSVKGRFTISRDNSKNTLYLQMNSLRAEDTAVYYCARGGTRVLGAIHGTDVWGQGTTVTVSS VL: DIQMTQSPSSLSASVGDRVTITCRASQGISSWLAWYQQKPEKAPKSLIYAASSLQSGVPSRFSGSGSGTDFTLTISSLQPEDFATYYCQQYNSYPLTFGGGTKVEIK"
0.224 nM,0.000106 s⁻¹,475000 M⁻¹ s⁻¹,"1251-B08 heavy chain paired with VL SEQ ID NO: 272 (antibody, V domains shown) VH: QVQLVESGGGVVQPGRSLRLSCAASGFNFSDYGMHWVRQAPDKGLEWVAVIWYDGSISYYADSVKGRFTISRDNSKNTLYLQMNSLRAEDTAVYYCARGGTVEHGAVYGTDVWGQGATVTVSS VL: DIQMTQSPSSLSASVGDRVTITCRASQGISSWLAWYQQKPEKAPKSLIYAASSLQSGVPSRFSGSGSGTDFTLTISSLQPEDFATYYCQQYNSYPLTFGGGTKVEIK"
0.225 nM,0.000218 s⁻¹,968000 M⁻¹ s⁻¹,"1251-B09 heavy chain paired with VL SEQ ID NO: 272 (antibody, V domains shown) VH: QVQLVESGGGVVQPGRSLRLSCAASGFNFSDYGMHWVRQAPDKGLEWVAVTWYDGSREYYADSVKGRFTISRDNSKNTLYLQMNSLRAEDTAVYYCARGGTLVHGALYGNDVWGQGTTVTVSS VL: DIQMTQSPSSLSASVGDRVTITCRASQGISSWLAWYQQKPEKAPKSLIYAASSLQSGVPSRFSGSGSGTDFTLTISSLQPEDFATYYCQQYNSYPLTFGGGTKVEIK"

# Molecular target: T1, hu-CD74 antigen (R&D SYSTEMS catalog …)
# Assay: SPR (Biacore T200), IgG captured on anti-human Fc, rhCD74 analyte
# Experimental: as §1
Kd,koff,kon,Binder
0.211 nM,8.01e-05 s⁻¹,379000 M⁻¹ s⁻¹,"HC 1251_B08 (wt)/LC 1337_A07 (wt) (antibody, human IgG1, kappa, V domains shown, IgG format) VH: QVQLVESGGGVVQPGRSLRLSCAASGFNFSDYGMHWVRQAPDKGLEWVAVIWYDGSISYYADSVKGRFTISRDNSKNTLYLQMNSLRAEDTAVYYCARGGTVEHGAVYGTDVWGQGATVTVSS VL: DIQMTQSPSSLSASVGDRVTITCRASQGISSWVAWYQQKPEKAPKSLIYGASRLQSGVPSRFSGSGSGTDFTLTISSLQPEDFATYYCQQYHTYPLTFGGGTKVEIKR"
0.437 nM,0.000124 s⁻¹,284000 M⁻¹ s⁻¹,"HC 1251_B08 (wt)/LC 1275_C10 (g) (antibody, human IgG1, kappa, V domains shown, IgG format) VH: QVQLVESGGGVVQPGRSLRLSCAASGFNFSDYGMHWVRQAPDKGLEWVAVIWYDGSISYYADSVKGRFTISRDNSKNTLYLQMNSLRAEDTAVYYCARGGTVEHGAVYGTDVWGQGATVTVSS VL: DIQMTQSPSSVSASVGDRVTITCRASQGVSSWLAWYQQKPGKAPKLLIYSARYLQSGVPSRFSGSGSGTDFTLTISSLQPEDFATYYCQQYNLYPLTFGGGTKVEIKR"
0.191 nM,0.000119 s⁻¹,623000 M⁻¹ s⁻¹,"HC 1251_B08 (wt)/LC 1275_C10 (wt) (antibody, human IgG1, kappa, V domains shown, IgG format) VH: QVQLVESGGGVVQPGRSLRLSCAASGFNFSDYGMHWVRQAPDKGLEWVAVIWYDGSISYYADSVKGRFTISRDNSKNTLYLQMNSLRAEDTAVYYCARGGTVEHGAVYGTDVWGQGATVTVSS VL: DIQMTQSPSSLSASVGDRVTITCRASQGVSSWLAWYQQKPEKAPKSLIYSARYLQSGVPSRFSGSGSGTDFTLTISSLQPEDFATYYCQQYNLYPLTFGGGTKVEIKR"
0.611 nM,0.000142 s⁻¹,232000 M⁻¹ s⁻¹,"HC 1251_B08 (wt)/LC 1337_A07 (g) (antibody, human IgG1, kappa, V domains shown, IgG format) VH: QVQLVESGGGVVQPGRSLRLSCAASGFNFSDYGMHWVRQAPDKGLEWVAVIWYDGSISYYADSVKGRFTISRDNSKNTLYLQMNSLRAEDTAVYYCARGGTVEHGAVYGTDVWGQGATVTVSS VL: DIQMTQSPSSVSASVGDRVTITCRASQGISSWVAWYQQKPGKAPKLLIYGASRLQSGVPSRFSGSGSGTDFTLTISSLQPEDFATYYCQQYHTYPLTFGGGTKVEIKR"
0.347 nM,0.000115 s⁻¹,332000 M⁻¹ s⁻¹,"HC 1251_B08 (wt)/LC 1337_A09 (g) (antibody, human IgG1, kappa, V domains shown, IgG format) VH: QVQLVESGGGVVQPGRSLRLSCAASGFNFSDYGMHWVRQAPDKGLEWVAVIWYDGSISYYADSVKGRFTISRDNSKNTLYLQMNSLRAEDTAVYYCARGGTVEHGAVYGTDVWGQGATVTVSS VL: DIQMTQSPSSVSASVGDRVTITCRASQGIGSWLAWYQQKPGKAPKLLIYAADRLQSGVPSRFSGSGSGTDFTLTISSLQPEDFATYYCQQYHTYPLTFGGGTKVEIKR"
0.108 nM,0.000116 s⁻¹,1.07e+06 M⁻¹ s⁻¹,"HC 1251_B08 (wt)/LC 1337_A09 (wt) (antibody, human IgG1, kappa, V domains shown, IgG format) VH: QVQLVESGGGVVQPGRSLRLSCAASGFNFSDYGMHWVRQAPDKGLEWVAVIWYDGSISYYADSVKGRFTISRDNSKNTLYLQMNSLRAEDTAVYYCARGGTVEHGAVYGTDVWGQGATVTVSS VL: DIQMTQSPSSLSASVGDRVTITCRASQGIGSWLAWYQQKPEKAPKSLIYAADRLQSGVPSRFSGSGSGTDFTLTISSLQPEDFATYYCQQYHTYPLTFGGGTKVEIKR"
0.957 nM,0.000183 s⁻¹,191000 M⁻¹ s⁻¹,"HC 1251_B08 (wt)/LC 1337_A10 (g) (antibody, human IgG1, kappa, V domains shown, IgG format) VH: QVQLVESGGGVVQPGRSLRLSCAASGFNFSDYGMHWVRQAPDKGLEWVAVIWYDGSISYYADSVKGRFTISRDNSKNTLYLQMNSLRAEDTAVYYCARGGTVEHGAVYGTDVWGQGATVTVSS VL: DIQMTQSPSSVSASVGDRVTITCRASQGISSWVAWYQQKPGKAPKLLIYGSSRLQSGVPSRFSGSGSGTDFTLTISSLQPEDFATYYCQQYNTYPLTFGGGTKVEIKR"
0.235 nM,0.000115 s⁻¹,491000 M⁻¹ s⁻¹,"HC 1251_B08 (wt)/LC 1337_A10 (wt) (antibody, human IgG1, kappa, V domains shown, IgG format) VH: QVQLVESGGGVVQPGRSLRLSCAASGFNFSDYGMHWVRQAPDKGLEWVAVIWYDGSISYYADSVKGRFTISRDNSKNTLYLQMNSLRAEDTAVYYCARGGTVEHGAVYGTDVWGQGATVTVSS VL: DIQMTQSPSSLSASVGDRVTITCRASQGISSWVAWYQQKPEKAPKSLIYGSSRLQSGVPSRFSGSGSGTDFTLTISSLQPEDFATYYCQQYNTYPLTFGGGTKVEIKR"
0.862 nM,0.000155 s⁻¹,180000 M⁻¹ s⁻¹,"HC 1251_B08 (g)/LC 1275_C10 (wt) (antibody, human IgG1, kappa, V domains shown, IgG format) VH: QVQLVESGGGVVQPGRSLRLSCAASGFNFSDYGMHWVRQAPGKGLEWVAVIWYDGSISYYADSVKGRFTISRDNSKNTLYLQMNSLRAEDTAVYYCARGGTVEHGAVYGTDVWGQGTTVTVSS VL: DIQMTQSPSSLSASVGDRVTITCRASQGVSSWLAWYQQKPEKAPKSLIYSARYLQSGVPSRFSGSGSGTDFTLTISSLQPEDFATYYCQQYNLYPLTFGGGTKVEIKR"
0.332 nM,0.000102 s⁻¹,306000 M⁻¹ s⁻¹,"HC 1251_B08 (g)/LC 1275_C10 (g) (antibody, human IgG1, kappa, V domains shown, IgG format) VH: QVQLVESGGGVVQPGRSLRLSCAASGFNFSDYGMHWVRQAPGKGLEWVAVIWYDGSISYYADSVKGRFTISRDNSKNTLYLQMNSLRAEDTAVYYCARGGTVEHGAVYGTDVWGQGTTVTVSS VL: DIQMTQSPSSVSASVGDRVTITCRASQGVSSWLAWYQQKPGKAPKLLIYSARYLQSGVPSRFSGSGSGTDFTLTISSLQPEDFATYYCQQYNLYPLTFGGGTKVEIKR"
0.64 nM,0.000106 s⁻¹,166000 M⁻¹ s⁻¹,"HC 1251_B08 (g)/LC 1337_A09 (wt) (antibody, human IgG1, kappa, V domains shown, IgG format) VH: QVQLVESGGGVVQPGRSLRLSCAASGFNFSDYGMHWVRQAPGKGLEWVAVIWYDGSISYYADSVKGRFTISRDNSKNTLYLQMNSLRAEDTAVYYCARGGTVEHGAVYGTDVWGQGTTVTVSS VL: DIQMTQSPSSLSASVGDRVTITCRASQGIGSWLAWYQQKPEKAPKSLIYAADRLQSGVPSRFSGSGSGTDFTLTISSLQPEDFATYYCQQYHTYPLTFGGGTKVEIKR"
0.252 nM,7.77e-05 s⁻¹,309000 M⁻¹ s⁻¹,"HC 1251_B08 (g)/LC 1337_A09 (g) (antibody, human IgG1, kappa, V domains shown, IgG format) VH: QVQLVESGGGVVQPGRSLRLSCAASGFNFSDYGMHWVRQAPGKGLEWVAVIWYDGSISYYADSVKGRFTISRDNSKNTLYLQMNSLRAEDTAVYYCARGGTVEHGAVYGTDVWGQGTTVTVSS VL: DIQMTQSPSSVSASVGDRVTITCRASQGIGSWLAWYQQKPGKAPKLLIYAADRLQSGVPSRFSGSGSGTDFTLTISSLQPEDFATYYCQQYHTYPLTFGGGTKVEIKR"
0.239 nM,7.76e-05 s⁻¹,325000 M⁻¹ s⁻¹,"HC 1251_B08 (g)/LC 1337_A07 (g) (antibody, human IgG1, kappa, V domains shown, IgG format) VH: QVQLVESGGGVVQPGRSLRLSCAASGFNFSDYGMHWVRQAPGKGLEWVAVIWYDGSISYYADSVKGRFTISRDNSKNTLYLQMNSLRAEDTAVYYCARGGTVEHGAVYGTDVWGQGTTVTVSS VL: DIQMTQSPSSVSASVGDRVTITCRASQGISSWVAWYQQKPGKAPKLLIYGASRLQSGVPSRFSGSGSGTDFTLTISSLQPEDFATYYCQQYHTYPLTFGGGTKVEIKR"
0.254 nM,9.97e-05 s⁻¹,392000 M⁻¹ s⁻¹,"HC 1251_B08 (g)/LC 1337_A10 (g) (antibody, human IgG1, kappa, V domains shown, IgG format) VH: QVQLVESGGGVVQPGRSLRLSCAASGFNFSDYGMHWVRQAPGKGLEWVAVIWYDGSISYYADSVKGRFTISRDNSKNTLYLQMNSLRAEDTAVYYCARGGTVEHGAVYGTDVWGQGTTVTVSS VL: DIQMTQSPSSVSASVGDRVTITCRASQGISSWVAWYQQKPGKAPKLLIYGSSRLQSGVPSRFSGSGSGTDFTLTISSLQPEDFATYYCQQYNTYPLTFGGGTKVEIKR"
